Reference: doi:10.1101/682807
“And” between values parts separate entries of the source, which are not always exact repeats. Equal entries are not always repeated.

What was measured:
[1] = molecular target: HR4^Fei-0 (overexpressed in N. benthamiana) (A. thaliana); assay: SDS-resistant dimers on SDS-PAGE immunoblot
[2] = molecular target: RPP7b-3×FLAG (A. thaliana); assay: native gel or EMSA

stoichiometry N [1] | stoichiometry N [2] | Substance
2 | – | HR4^Fei-0 (overexpressed in N. benthamiana) (natural protein)
– | 7 and 6 | RPP7b-3×FLAG (natural protein)
